Test results: US20240132578A1

Legend:
Assay in all cases: cell-based or functional assay
[1] = target: HIV-1 92TH021 envelope glycoprotein (Env), clade AE pseudovirus (HIV-1)
[2] = target: HIV-1 CMU02 envelope glycoprotein (Env), clade AE pseudovirus (HIV-1)
[3] = target: HIV-1 JR-CSF Env K343A (HIV-1 isolate JR-CSF) (UniProt P20871)
[4] = target: HIV-1 MGRM-AG-005 envelope glycoprotein (Env), clade AG pseudovirus (HIV-1)
[5] = target: HIV-1 MGRM-D-001 envelope glycoprotein (Env), clade D pseudovirus (HIV-1)
[6] = target: HIV-1 NL43 envelope glycoprotein (Env), clade B pseudovirus (HIV-1)
[7] = target: HIV-1 Env of isolate 92TH021 (clade AE) (HIV-1)
[8] = target: HIV-1 Env of isolate MGRM-C-027 (clade C) (HIV-1)
[9] = target: HIV-1 92RW020 envelope glycoprotein (Env) (HIV-1)
[10] = target: HIV-1 93UG077 envelope glycoprotein (Env) (HIV-1)
[11] = target: HIV-1 APV17 envelope glycoprotein (Env) (HIV-1)
[12] = target: HIV-1 MGRM-C-026 envelope glycoprotein (Env) (HIV-1)
[13] = target: HIV-1 MGRM-C-027 envelope glycoprotein (Env) (HIV-1)
[14] = target: HIV-1 92BR020 Env (HIV-1 isolate 92BR020 (clade B))
[15] = target: HIV-1 APV13 Env (HIV-1 isolate APV13 (clade B))
[16] = target: HIV-1 APV17 Env (HIV-1 isolate APV17 (clade B))
[17] = target: HIV-1 MGRM-C-027 Env (HIV-1 isolate MGRM-C-027 (clade C))
[18] = target: HIV-1 92BR020 envelope glycoprotein (Env) on pseudovirus (HIV-1)
[19] = target: HIV-1 JR-CSF Env R315A (HIV-1 (isolate JR-CSF, clade B)) (UniProt P20871)
[20] = target: HIV-1 JR-CSF Env R304A (HIV-1 (isolate JR-CSF, clade B)) (UniProt P20871)
[21] = target: HIV-1 92TH021 envelope glycoprotein (Env) on virus (HIV-1, clade AE, isolate 92TH021)
[22] = target: HIV-1 93IN905 envelope glycoprotein (Env) on virus (HIV-1, clade C, isolate 93IN905)
[23] = target: HIV-1 93UG077 envelope glycoprotein (Env) on virus (HIV-1, clade A, isolate 93UG077)
[24] = target: HIV-1 MGRM-D-001 envelope glycoprotein (Env) on virus (HIV-1, clade D, isolate MGRM-D-001)
[25] = target: HIV-1 MGRM-D-018 envelope glycoprotein (Env) on virus (HIV-1, clade D, isolate MGRM-D-018)
[26] = target: HIV-1 Env of isolate MGRM-Chronic-B-003 (subtype B), on pseudovirus (HIV-1)
[27] = target: HIV-1 Env of pseudovirus CAAN (HIV-1)
[28] = target: HIV-1 APV13 Env (pseudovirus) (HIV-1)
[29] = target: HIV-1 JR-CSF Env S306A (HIV-1 (isolate JR-CSF, clade B)) (UniProt P20871)

Sequence of 5329_C19 (PGT-136) (antibody) (VH): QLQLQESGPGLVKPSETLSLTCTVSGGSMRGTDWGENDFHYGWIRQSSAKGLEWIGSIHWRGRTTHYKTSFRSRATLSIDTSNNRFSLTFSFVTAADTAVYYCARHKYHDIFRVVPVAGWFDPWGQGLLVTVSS
Sequence of 5329_C19 (PGT-136) (antibody) (VL): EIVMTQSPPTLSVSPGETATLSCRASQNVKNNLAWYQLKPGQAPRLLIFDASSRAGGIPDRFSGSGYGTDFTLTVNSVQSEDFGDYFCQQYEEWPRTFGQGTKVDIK
Sequence of 1443_C16 (PG16) (TCN-116) (antibody) (VH): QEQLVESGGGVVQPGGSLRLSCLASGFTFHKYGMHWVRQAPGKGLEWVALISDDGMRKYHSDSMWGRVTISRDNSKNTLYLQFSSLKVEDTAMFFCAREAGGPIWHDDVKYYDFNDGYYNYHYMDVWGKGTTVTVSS
Sequence of 1443_C16 (PG16) (TCN-116) (antibody) (VL): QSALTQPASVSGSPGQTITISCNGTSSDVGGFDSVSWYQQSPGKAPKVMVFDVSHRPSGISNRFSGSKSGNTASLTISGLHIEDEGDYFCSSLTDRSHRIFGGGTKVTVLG

For 4858_P08 (PGT-123) (antibody), the IC50, pseudovirus neutralization [1] was > 10 µg/mL, the IC80 (pseudovirus neutralization) [1] was > 10 µg/mL and the IC90 (pseudovirus neutralization) [1] was > 10 µg/mL. The IC95 (pseudovirus neutralization) [1] was > 10 µg/mL, the IC50, pseudovirus neutralization [2] was > 10 µg/mL and the IC80 (pseudovirus neutralization) [2] was > 10 µg/mL. The IC90 (pseudovirus neutralization) [2] was > 10 µg/mL, the IC95 (pseudovirus neutralization) [2] was > 10 µg/mL and the Fold IC50 increase relative to wild-type [3] was 0.3 fold. The IC50, pseudovirus neutralization [4] was 0.104 µg/mL, the IC80 (pseudovirus neutralization) [4] was 1.28 µg/mL and the IC90 (pseudovirus neutralization) [4] was 6.38 µg/mL. For the same substance, the IC95 (pseudovirus neutralization) [4] was > 10 µg/mL, the IC50, pseudovirus neutralization [5] was 0.215 µg/mL and the IC80 (pseudovirus neutralization) [5] was 0.678 µg/mL. The IC90 (pseudovirus neutralization) [5] was 1.31 µg/mL, the IC95 (pseudovirus neutralization) [5] was 2.33 µg/mL and the IC50, pseudovirus neutralization [6] was > 10 µg/mL. The IC80 (pseudovirus neutralization) [6] was > 10 µg/mL, the IC90 (pseudovirus neutralization) [6] was > 10 µg/mL and the IC95 (pseudovirus neutralization) [6] was > 10 µg/mL.
In the case of 1496_C09 (PG9) (TCN-109) (antibody), the Neutralization IC80 [7] is reported as 0.448 µg/mL, the Neutralization IC90 [7] is reported as 1.07 µg/mL and the Neutralization IC95 [7] is reported as 2.43 µg/mL. The neutralization IC50 [7] was 0.103 µg/mL and the neutralization IC50 [8] was 2.45 µg/mL.
For 5329_C19 (PGT-136) (antibody), the Neutralization IC80 [9] was > 10 µg/mL, the Neutralization IC90 [9] was > 10 µg/mL and the Neutralization IC95 [9] was > 10 µg/mL. For the same substance, the neutralization IC50 [9] was 0.738 µg/mL, the Neutralization IC80 [10] was > 10 µg/mL and the Neutralization IC90 [10] was > 10 µg/mL. The Neutralization IC95 [10] was > 10 µg/mL, the neutralization IC50 [10] was > 10 µg/mL and the Neutralization IC80 [11] was > 10 µg/mL. For the same substance, the Neutralization IC90 [11] was > 10 µg/mL, the Neutralization IC95 [11] was > 10 µg/mL and the neutralization IC50 [11] was > 10 µg/mL. For the same substance, the Neutralization IC80 [12] was 0.0285 µg/mL, the Neutralization IC90 [12] was 0.0687 µg/mL and the Neutralization IC95 [12] was 0.159 µg/mL. The neutralization IC50 [12] was 0.0065 µg/mL, the Neutralization IC80 [13] was > 10 µg/mL and the Neutralization IC90 [13] was > 10 µg/mL. The Neutralization IC95 [13] was > 10 µg/mL and the neutralization IC50 [13] was > 10 µg/mL.
4838_L06 (PGT-121) (antibody) showed a Neutralization IC80 [14] of 0.0532 µg/mL, a Neutralization IC90 [14] of 0.101 µg/mL and a Neutralization IC80 [15] of 1.31 µg/mL. For the same substance, the Neutralization IC90 [15] was 2.8 µg/mL, the Neutralization IC95 [15] was 5.15 µg/mL and the Neutralization IC80 [16] was 0.371 µg/mL. For the same substance, the Neutralization IC90 [16] was 0.799 µg/mL, the Neutralization IC95 [16] was 1.55 µg/mL and the Neutralization IC80 [17] was 0.0829 µg/mL. It also gave a Neutralization IC90 [17] of 0.374 µg/mL and a Neutralization IC95 [17] of 3.14 µg/mL.
5343_B08 (PGT-135) (antibody) gave a Neutralization IC80 [18] of 0.253 µg/mL, a Neutralization IC90 [18] of 0.43 µg/mL and a Neutralization IC95 [18] of 0.72 µg/mL. The neutralization IC50 [18] was 0.104 µg/mL and the Fold IC50 increase relative to wild-type [19] was 1.8 fold.
5145_B14 (PGT-127) (antibody) showed a Fold IC50 increase relative to wild-type [20] of 0.4 fold.
With 4877_D15 (PGT-122) (antibody) the Neutralization IC80 [21] was > 10 µg/mL, the Neutralization IC90 [21] was > 10 µg/mL and the Neutralization IC95 [21] was > 10 µg/mL. The neutralization IC50 [21] was > 10 µg/mL, the Neutralization IC80 [22] was 0.0505 µg/mL and the Neutralization IC90 [22] was 0.108 µg/mL. The Neutralization IC95 [22] was 0.217 µg/mL, the neutralization IC50 [22] was 0.0138 µg/mL and the Neutralization IC80 [23] was 0.931 µg/mL. For the same substance, the Neutralization IC90 [23] was 2.1 µg/mL, the Neutralization IC95 [23] was 3.88 µg/mL and the neutralization IC50 [23] was 0.191 µg/mL. For the same substance, the Neutralization IC80 [24] was 4.48 µg/mL, the Neutralization IC90 [24] was > 10 µg/mL and the Neutralization IC95 [24] was > 10 µg/mL. The neutralization IC50 [24] was 0.867 µg/mL, the Neutralization IC80 [25] was 0.035 µg/mL and the Neutralization IC90 [25] was 0.0674 µg/mL. For the same substance, the Neutralization IC95 [25] was 0.125 µg/mL and the neutralization IC50 [25] was 0.0115 µg/mL.
PGV04 (antibody) was tested, and the IC50, single-round pseudovirus neutralization [26] was 0.258 µg/mL.
In the case of 1443_C16 (PG16) (TCN-116) (antibody), the IC50, pseudovirus neutralization (TZM-bl assay) [27] is reported as 6.37 µg/mL.
5123_A06 (PGT-125) (antibody) gave a Neutralization by PGT-125, IC50 [28] of 0.0128 µg/mL, a Neutralization by PGT-125, IC80 [28] of 0.0414 µg/mL and a Neutralization by PGT-125, IC90 [28] of 0.0821 µg/mL. For the same substance, the Neutralization by PGT-125, IC95 [28] was 0.154 µg/mL and the Fold IC50 increase relative to wild-type [29] was 1.2 fold.
